Where “and” joins values, the source holds several entries; their conditions need not be identical. Equal entries are not always repeated.
Assays:
[1] = target: soluble Tau in control human brain lysate (human) (UniProt P10636); experiment: ELISA on coated brain lysate, antibody 0.5 nM
[2] = target: soluble Tau in Alzheimer's disease human brain lysate (human) (UniProt P10636); experiment: ELISA on coated brain lysate, antibody 0.5 nM
[3] = target: soluble Tau in control human brain lysate (human) (UniProt P10636); experiment: ELISA on coated brain lysate, antibody 5 nM
[4] = target: soluble Tau in Alzheimer's disease human brain lysate (human) (UniProt P10636); experiment: ELISA on coated brain lysate, antibody 5 nM

soluble Tau in Alzheimer's disease human brain lysate (human), sequence (P10636 other isoform, or with tags, fused parts or gaps limits assumed): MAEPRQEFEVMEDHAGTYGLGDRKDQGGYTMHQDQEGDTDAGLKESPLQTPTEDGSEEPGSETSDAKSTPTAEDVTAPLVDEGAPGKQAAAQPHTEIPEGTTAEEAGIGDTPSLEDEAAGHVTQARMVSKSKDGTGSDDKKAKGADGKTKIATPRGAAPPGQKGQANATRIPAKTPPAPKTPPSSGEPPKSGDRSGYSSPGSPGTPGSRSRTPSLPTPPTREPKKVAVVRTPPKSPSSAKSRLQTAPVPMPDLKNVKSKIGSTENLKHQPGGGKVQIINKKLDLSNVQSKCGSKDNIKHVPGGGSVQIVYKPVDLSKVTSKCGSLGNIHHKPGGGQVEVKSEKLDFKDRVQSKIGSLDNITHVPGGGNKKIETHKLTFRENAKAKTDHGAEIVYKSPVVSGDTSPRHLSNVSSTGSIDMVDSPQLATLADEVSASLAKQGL
soluble Tau in control human brain lysate (human), sequence (P10636 other isoform, or with tags, fused parts or gaps limits assumed): as above

- ELISA signal [1]: 0.147 and 0.106 and 0.108
- ELISA signal [2]: 0.108 and 0.117 and 0.115
- ELISA signal [3]: 0.151 and 0.107 and 0.11
- ELISA signal [4]: 0.108 and 0.107 and 0.117
Substance: anti-RSV antibody (negative control)

Reference: patent US20200216522A1
